Data: paper PMC4370617, “Development of a Molecularly Evolved, Highly Sensitive CaMKII FRET Sensor with Improved Expression Pattern” (PLoS ONE, 2015)

Biological target: the molecule itself
Test: native gel or EMSA; His-tagged association domains purified from HeLa cells, incubated in 25 mM HEPES pH 7.3, 50 mM KCl, 1 mM DTT for 1 hour at 37°C; native-PAGE, silver staining

B1: His-tagged association domain of CaMKIIα, wild type (domain or fragment, rat, UniProt P11275 345-478, looked up)
chain: VRKQEIIKVTEQLIEAISNGDFESYTKMCDPGMTAFEPEALGNLVEGLDFHRFYFENLWSRNSKPVHTTILNPHIHLMGDESACIAYIRITQYLDAGGIPRTAQSEETRVWHRRDGKWQIVHFHRSGAPSVLPH
notes: association domain of CaMKIIα, rat, 345-end; Printed molecular weight of the His-tagged domain: 19,800; The limits 345-end are stated for the library fragment; they are not restated for the HeLa expression construct; also called AD WT; source: HeLa, transfected, purified (Ni-Sepharose)
binding result: binds
